Measured values from FireProtDB (doi:10.1110/ps.8.7.1500).

Conditions: Aspergillus oryzae (strain ATCC 42149 / RIB 40), Thermal, DSC, whole UniProt chain shown

B1: Guanyl-specific ribonuclease T1 wild type, P00651 (protein)
chain: MMYSKLLTLTTLLLPTALALPSLVERACDYTCGSNCYSSSDVSTAQAAGYQLHEDGETVGSNSYPHKYNNYEGFDFSVSSPYYEWPILSSGDVYSGGSPGADRVVFNENNQLAGVITHTGASGNNFVECT
unfolding free energy (pH 2.8, 17.1 °C, glycine 10 mM): 5.6 kcal/mol
unfolding free energy (pH 2.8, 21.1 °C, glycine 10 mM): 4.9 kcal/mol
unfolding free energy (pH 2.8, 24.9 °C, glycine 10 mM): 4.3 kcal/mol
unfolding free energy (pH 2.8, 25 °C, glycine 10 mM): 4.3 kcal/mol
unfolding free energy (pH 2.8, 27.8 °C, glycine 10 mM): 3.7 kcal/mol
unfolding free energy (pH 3, 25 °C, glycine 10 mM): 5.2 kcal/mol
Tm (pH 3, glycine 10 mM): 49.1 °C
unfolding enthalpy (calorimetric) (pH 3, glycine 10 mM): 82.7 kcal/mol
unfolding free energy (pH 3.6, 25 °C, acetate 10 mM): 6.7 kcal/mol
unfolding free energy (pH 4, 25 °C, acetate 10 mM): 7.2 kcal/mol
unfolding free energy (pH 5, 25 °C, acetate 10 mM): 8.1 kcal/mol
Tm (pH 5, acetate 10 mM): 58.6 °C
unfolding enthalpy (calorimetric) (pH 5, acetate 10 mM): 99.1 kcal/mol
unfolding free energy (pH 6, 25 °C, MOPS or HEPES 10 mM): 8.5 kcal/mol
Tm (pH 6, MOPS or HEPES 10 mM): 60.3 °C
unfolding enthalpy (calorimetric) (pH 6, MOPS or HEPES 10 mM): 101 kcal/mol
Tm (pH 7, MOPS or HEPES 10 mM): 61.8 °C
unfolding enthalpy (calorimetric) (pH 7, MOPS or HEPES 10 mM): 102 kcal/mol
